Data from article PMC7990132.

Biological target: FcγRI (UniProt P12314)
Experiment: BLI

UniProt P12314, sequence (P12314 16-374): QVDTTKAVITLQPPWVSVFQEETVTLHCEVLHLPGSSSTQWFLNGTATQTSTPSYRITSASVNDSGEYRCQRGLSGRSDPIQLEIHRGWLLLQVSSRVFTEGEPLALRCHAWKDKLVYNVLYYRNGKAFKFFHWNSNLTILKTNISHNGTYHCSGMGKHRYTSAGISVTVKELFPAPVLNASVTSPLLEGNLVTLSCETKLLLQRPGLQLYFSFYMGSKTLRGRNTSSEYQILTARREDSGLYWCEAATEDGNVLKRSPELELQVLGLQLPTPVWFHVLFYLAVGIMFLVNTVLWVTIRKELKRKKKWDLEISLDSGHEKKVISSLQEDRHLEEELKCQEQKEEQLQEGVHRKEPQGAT

Kd: 0.01 µM
Substance: Sintilimab (antibody)
